Results on 40 sequences are retold here after the nanobody polyreactivity screen of Harvey et al. (2022).

A short description of the data set: yeast display, Sf9 membrane polyspecificity reagent, FACS + sequencing; frameworks hold sequencing errors. Summed up:
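After 36–48 hours of galactose induction, yeast (Saccharomyces cerevisiae BJ5465) displaying a synthetic nanobody library were stained at 4 °C for 1 hour with 10% biotinylated, detergent-solubilized Sf9 membrane reagent. Streptavidin microbeads enriched the stained cells before FACS sorting into low and high (top ~1%) gates on anti-HA and streptavidin fluorescence. Each clone's polyreactivity label reflects its gate of origin.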
With “QVQLVESGGGLVQAGGSLRLSCAASGSIFYYYGMGWYRQAPGKERELVAGISSRGGRTYYADSVKGRFTISRDNAKNTVYLQMNSLKPEDTAVYYCAADRYYYAYRYYPSGYWGQGTQVTVSS”, the “polyreactivity (PSR sort gate)” value is on record as “low polyreactivity”.

Turning to “QVQLVESGGGLVQAGGSLRLSCAASGSIFYYYTMGWDRQAPGKERELVADITYRGGSTYYADSVKGRFTISRDNAKNTVYLLMNSLKPEDTAVNFCAAASLVRGGHFDYWGQGTQVTVSS”, the “polyreactivity (PSR sort gate)” value is listed as “high polyreactivity”.

“QVQLVESGGGLVQAGGSLRLSCAASGSIFYYYVMGWYRQAPGKERELVAAIRSSGTSTYYADSVKGRFTISRDNAKNTVYLQMNSLKPEDTAVYYCNRARSSSRYDYWGQGTQVTVSS”: the “polyreactivity (PSR sort gate)” value is recorded as “low polyreactivity”.

As for “QVQLVESGGGLVQAGGSLRLSCAASGSIFYYYVMGWYRQAPGKERELVAAITYSGGRTYYADSVKGRFTISRDNAKYTVYLQMNSLKPEDTAVYYCNVVIYYFNSRSVFYDYDYWGQGTQVTVSS”, the “polyreactivity (PSR sort gate)” value is listed as “high polyreactivity”.

Regarding “QVQLVESGGGLVQAGGSLRLSCAASGSIIDWNAMGWYRQAPGKERELVAVISWGGGSTYADSVKGRFTISRDNAKNTVYLQMNSLKPEDTAVYNCNKEPIYYPVSDYDYWGQGTQVTVSS”, the “polyreactivity (PSR sort gate)” value is on record as “low polyreactivity”.

Consider “QVQLVESGGGLVQAGGSLRLSCAASGSIIGIYALGWYRQAPGKERELVAAISWSGGSTYYADSVKGRFTISRDNAKNTVYLQMNSLKPEDTAVYYCAARGHYQYYWGQGTQVTVSS”, for which the “polyreactivity (PSR sort gate)” value is on record as “low polyreactivity”.

Turning to “QVQLVESGGGLVQAGGSLRLSCAASGSIIGLYVMGWYRQAPGKERELVAAISWSGGSTYYADSVKGRFTISRDNAKNTVYLQMNSLKPEDTAVYYCAARVYSVADYYYWGQGTQVTVSS”, the “polyreactivity (PSR sort gate)” value is “low polyreactivity”.

Turning to “QVQLVESGGGLVQAGGSLRLSCAASGSIIGRNAMGWYRQAPGKERELVAAISTRGGRTYYADSVKGRFTISRDNAKNTVYLQMNSLKPEDTAVYYCAATYQYLKSGYYWGQGTQVTVSS”, the “polyreactivity (PSR sort gate)” value is “high polyreactivity”.

“QVQLVESGGGLVQAGGSLRLSCAASGSIIGYYAMGWYRQARGKERELVAAISSSGASTYYADSVKGRFTISRDNAKYTVYLQMNSLKPEDTAVYYCNAARRYPTRGGYWGQGTQVTVSS”: the “polyreactivity (PSR sort gate)” value is on record as “high polyreactivity”.

In the case of “QVQLVESGGGLVQAGGSLRLSCAASGSIIHDNAMGWYRQAPGKERELVAAINRGGSTHYADSVKGRFTISRDNAKNTVYLQMNSLKPEDTAVYYCAADGIRPEVGYWGQGTQVTVSS”, the “polyreactivity (PSR sort gate)” value is given as “low polyreactivity”.

In the case of “QVQLVESGGGLVQAGGSLRLSCAASGSIIKPYAMGWYRQAPGKERELVAAIRSSGGRTNYADSVKGRFTISRDNAKNTVYLQMNSLKPEDTAVYYCAKRYYGRKYYYWGQGTHVTVSS”, the “polyreactivity (PSR sort gate)” value is listed as “high polyreactivity”.

In the case of “QVQLVESGGGLVQAGGSLRLSCAASGSIIKRNAMGWYRQAPGKERELVASISSGGSTKYADSVKGRFTISRDNAKNTVYLQKNSLKPEDTAVSYCAKRSSQTRRAYDYGGQGTQVTVSS”, the “polyreactivity (PSR sort gate)” value is given as “low polyreactivity”.

As to “QVQLVESGGGLVQAGGSLRLSCAASGSIILRYAMGWYRQATGKERELVAAISNRGGSTYYADSVKGRFTISRDNAKNTVYLQMNSLKPEDTAVYYCAVRSTNERSAGKRRYYYWGQGTQVTVSS”, the “polyreactivity (PSR sort gate)” value was “high polyreactivity”.

On to “QVQLVESGGGLVQAGGSLRLSCAASGSIIQGYVMGWYRQAPGKERELVAAISNSGSSTYYADSVKGRFTISRDNAKNTVYIQMNSLKPEDTAVYYCAVLRSYRGYKYGYWGQGTQVTVSS”, for which the “polyreactivity (PSR sort gate)” value is given as “high polyreactivity”.

“QVQLVESGGGLVQAGGSLRLSCAASGSIIRAYAMGWYRQAPGKERELVAAITIGDSTYYADSVKGRFTISRDNAKNTVYLQMNSLKPEDTAVYYCAAKSQHLYTRRFNYWGQGTQVTVSS”: the “polyreactivity (PSR sort gate)” value was “low polyreactivity”.

With “QVQLVESGGGLVQAGGSLRLSCAASGSIIRGNAMGWYSQAPGKERELVATITNGGSTNYADSVKGRFTISRDNAKNTVYFQMNSMKPEDTAVYYCNADHSYHIASTRHVDFWGQGTQVTVSS”, the “polyreactivity (PSR sort gate)” value was “low polyreactivity”.

For “QVQLVESGGGLVQAGGSLRLSCAASGSIIRRYAMGWYRQAPGKERELVAAISSNGGSTYYADSVKGRFTISRDNAKNTVYLQMNSLKPEDTAVYYCNKLSSYVVARRTTEYDYWGQGTQVTVSS”, the “polyreactivity (PSR sort gate)” value is recorded as “high polyreactivity”.

As to “QVQLVESGGGLVQAGGSLRLSCAASGSIIRWNAMGWYRQAPGKERELVAAITGGGGNTYYSDSVKGRFTISRDNAKNTVYLQMNSLKPEDTAVYYCNVVYRNYRNDYWGQGTQVTVSS”, the “polyreactivity (PSR sort gate)” value is “high polyreactivity”.

As to “QVQLVESGGGLVQAGGSLRLSCAASGSIISINAMGWYRQAPGKERELVAAITWSGGSTYYADSVKGRVTISRDNAKNTVYLQMNSLKPEDTAVYYCAAAFWFQRGTGYYTSKFDYWGQGTQVTVSS”, the “polyreactivity (PSR sort gate)” value is “low polyreactivity”.

As to “QVQLVESGGGLVQAGGSLRLSCAASGSIITWNAMGWYRQAPGKERELVAAIDWDGGSTYYADSVKGRFTISRDNAKNTVYLQMNSLKPEDSAVYYCAATYGWYTGRYPSGHYYYWGQGTQVTVSS”, the “polyreactivity (PSR sort gate)” value was “low polyreactivity”.

“QVQLVESGGGLVQAGGSLRLSCAASGSIITWYTMGWYRQATGKERELVASISSGGTTKYADSVKGRFTISRDNAKNTVYLQMNCLKPEDTAVYYCAAEYIAYYGTGTYYGLDYWGQGTQVTVSS”: the “polyreactivity (PSR sort gate)” value is reported as “low polyreactivity”.

For “QVQLVESGGGLVQAGGSLRLSCAASGSIIVRNAMGWYRQAPGKERELVAAISKSGGSTYYADSVKGRFTISRDNAKNTVYLQMNSLKPEDTAVYYCAVYPRSTLRTFQRDYWGQGTQVTVSS”, the “polyreactivity (PSR sort gate)” value was “high polyreactivity”.

As for “QVQLVESGGGLVQAGGSLRLSCAASGSIIVWNAMGWYRQAPGKERELVASITSGASTYYADSVKGRFTISRDNAKNTVYLQMNSLKPEDTAVYFCAAYYGYTDVWYLYSGYNYWGQGTQVTVSS”, the “polyreactivity (PSR sort gate)” value is on record as “low polyreactivity”.

For “QVQLVESGGGLVQAGGSLRLSCAASGSIIVYNAMGWYRQAPGKERELVAAITGRVGSTYYADSVKGRFTISRDNAKNTVYLQMNSMKPEDTAVYYCAARSYFKWWYAMDYWGQGTQVTVSS”, the “polyreactivity (PSR sort gate)” value is on record as “high polyreactivity”.

Take “QVQLVESGGGLVQAGGSLRLSCAASGSIIVYYAMGWYRQAPGKQRELVAANDQSGGSTYYADSVKGRFTISRDNAKNTVYLQMNSLKPEDTAVYYCASVHSLYWLGDDTYGYDYWGQGTQVTVSS”: the “polyreactivity (PSR sort gate)” value is on record as “low polyreactivity”.

For “QVQLVESGGGLVQAGGSLRLSCAASGSIIYLYAMGWYRQAPGKERELVAAISKSGSRTYYADSVKGRFTISRDNAKNTVYLQMNSLKPEDTAVYYCATPYRVYGEGYYWGQGTQVTVSS”, the “polyreactivity (PSR sort gate)” value is “high polyreactivity”.

In the case of “QVQLVESGGGLVQAGGSLRLSCAASGSIIYLYAMGWYRQAPGKERELVAAITSIGGSTYADSVKGRFTISRDNAKNTVYLQMNSLKPEDTAVYYCNTDEYPLTVQVQYYYWGQGTQVTVSS”, the “polyreactivity (PSR sort gate)” value is on record as “low polyreactivity”.

Take “QVQLVESGGGLVQAGGSLRLSCAASGSIIYPYVMGWYRQAPGKERELVAAISASGGSTYYADSMKGRFTISRDNAKNTVYLQMNSLKPEDTGVYYCAKYYRFRDDYDYWGQGTQVTVSS”: the “polyreactivity (PSR sort gate)” value is given as “high polyreactivity”.

Take “QVQLVESGGGLVQAGGSLRLSCAASGSIIYQYAMGWYRQAPGKERELVAAITWSGGSTYYADSVKGRFTISRDNAKNTVYLQMNSLKPEDTAVYYCAAYAYGGRINGYRTYRYNYWGQGTQVTVSS”: the “polyreactivity (PSR sort gate)” value was “high polyreactivity”.

With “QVQLVESGGGLVQAGGSLRLSCAASGSILAINAMGWYRQAPGKERELVAAINWSGGSTFYADSVKGRFTISRDNAKNTVYLQMNSLKPEDTAVYYCNVEWTDSERGDYYVDYDYWGQGTQVTVSS”, the “polyreactivity (PSR sort gate)” value is listed as “low polyreactivity”.

“QVQLVESGGGLVQAGGSLRLSCAASGSILAYNAMGWYRKAPGKERELVAAIRLSGGSTYYADSVKGRFTISRDNAKNTVYLQMNSLKPEDTAVYYCARRYYRYDTRKYNYWGQGTQVTVSS”: the “polyreactivity (PSR sort gate)” value is reported as “high polyreactivity”.

For “QVQLVESGGGLVQAGGSLRLSCAASGSILDNYGMGWYRQAPGKERELVASISGGAGSPNYADSVKGRFTISRDNAKNTVYLQMYSLKPEVTAVYDCNADQIFGPALNLWKLDYWGQGNQVTVSS”, the “polyreactivity (PSR sort gate)” value is listed as “low polyreactivity”.

With “QVQLVESGGGLVQAGGSLRLSCAASGSILDPNAMGWYRQAPGKERELVAAISSSGGSTYYADSVKGRFTISRDNAKNTVYLQMNSLKPEDTAVYYCAADHFIPIYSKYDYWGQGTQVTVSS”, the “polyreactivity (PSR sort gate)” value is on record as “high polyreactivity”.

With “QVQLVESGGGLVQAGGSLRLSCAASGSILDPNAMGWYRQAPGKERELVASISRGDNTYYADSVKGRFRISRDNAKNTVYLQMNSLKPEDTAVYYCAADYSWVVWHDYWGQGTQVTVSS”, the “polyreactivity (PSR sort gate)” value is “low polyreactivity”.

Consider “QVQLVESGGGLVQAGGSLRLSCAASGSILDSNAMGWYRQAPGKERELVAAITSGGSTYYADSVKGRFTISRDNAKNTVYLQKNSLKPEDTAVYYCDTPVASVTGYDYWGQGTQVTVSS”, for which the “polyreactivity (PSR sort gate)” value is recorded as “low polyreactivity”.

Turning to “QVQLVESGGGLVQAGGSLRLSCAASGSILDSNAMGWYRQAPGKERELVAAITSGGSTYYADSVKGRFTISRDNAMNSVYLQMNSLKPEDTAVYYCAAAYLGYGAVQPSYEGGYWGQGTQVTVSS”, the “polyreactivity (PSR sort gate)” value is “low polyreactivity”.

In the case of “QVQLVESGGGLVQAGGSLRLSCAASGSILDYYVMGWYRQAPGKERELVAAIRGGGSTYYADSVKGRFTISRDNEKNTVYLQMNRMKREDTAVNYCAAAVYGSYTTYGYFEHYFWGQGTQVTVSS”, the “polyreactivity (PSR sort gate)” value is recorded as “low polyreactivity”.

For the sequence “QVQLVESGGGLVQAGGSLRLSCAASGSILEGNGMGWYRQAPGKERELVASITRSGGSTYYSDSVKGRFTISRDNAKNTVYLQMNSLKPEDTAVYYCAAKGSTYGLTIRWYPYLHGYNYWGQGTQVTVSS”, the “polyreactivity (PSR sort gate)” value was “low polyreactivity”.

Consider “QVQLVESGGGLVQAGGSLRLSCAASGSILEVYAMGWYRQAPGKERELVAAISDGDSTYYADSVKGRFTISRDNAKNTVYLQMNSLKPEDTAGYYCAAEFVGTLWWYDYWGQGTQVTVSS”, for which the “polyreactivity (PSR sort gate)” value was “low polyreactivity”.

For “QVQLVESGGGLVQAGGSLRLSCAASGSILFGYGMGWYRQAPGKERELVATITTSGGTYYADSVKGRFTISRDNAKNTVYLQMNSLKPEDTAVYYCAATAAALDGNTIMYYWGQGTQVTVSS”, the “polyreactivity (PSR sort gate)” value is “low polyreactivity”.
